According to paper PMC5238724:

Target: Drosophila protamine B (Prot B), untagged recombinant (Drosophila)
Test: non-reducing SDS-PAGE of disulfide-linked oligomers

- stoichiometry N: 2
Substance: Drosophila protamine B (Prot B), untagged recombinant (natural protein)
